The source of these data is article PMC11074131, “ASS1 inhibits triple-negative breast cancer by regulating PHGDH stability and de novo serine synthesis” (Cell Death & Disease, 2024).

The chains are these.
T1: His-PHGDH (UniProt O43175 1-533)
T1 construct: also called PHGDH-F; full-length PHGDH; source: E. coli BL21 DE3, purified
T1 sequence (looked up): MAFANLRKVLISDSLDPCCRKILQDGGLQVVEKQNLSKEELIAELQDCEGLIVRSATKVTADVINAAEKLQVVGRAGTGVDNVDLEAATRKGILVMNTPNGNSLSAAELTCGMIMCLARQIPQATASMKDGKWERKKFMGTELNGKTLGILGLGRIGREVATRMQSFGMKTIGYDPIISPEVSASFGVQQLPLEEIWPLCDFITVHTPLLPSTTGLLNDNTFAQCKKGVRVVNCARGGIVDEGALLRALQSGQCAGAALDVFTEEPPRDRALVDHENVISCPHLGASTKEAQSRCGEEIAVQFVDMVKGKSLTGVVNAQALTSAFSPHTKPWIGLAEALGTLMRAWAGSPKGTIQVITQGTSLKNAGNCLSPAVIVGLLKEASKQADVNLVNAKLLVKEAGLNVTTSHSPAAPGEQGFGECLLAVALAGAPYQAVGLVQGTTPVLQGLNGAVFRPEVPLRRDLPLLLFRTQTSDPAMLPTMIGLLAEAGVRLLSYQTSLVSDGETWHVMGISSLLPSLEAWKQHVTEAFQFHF

T2: GST-PHGDH (UniProt O43175 1-533)
T2 construct: also called recombinant GST-PHGDH; source: E. coli BL21 DE3, purified
T2 sequence (looked up): T1 sequence (looked up)

B1: PHGDH N-314 (catalytic domain) (domain or fragment, UniProt O43175 1-314, looked up)
chain: MAFANLRKVLISDSLDPCCRKILQDGGLQVVEKQNLSKEELIAELQDCEGLIVRSATKVTADVINAAEKLQVVGRAGTGVDNVDLEAATRKGILVMNTPNGNSLSAAELTCGMIMCLARQIPQATASMKDGKWERKKFMGTELNGKTLGILGLGRIGREVATRMQSFGMKTIGYDPIISPEVSASFGVQQLPLEEIWPLCDFITVHTPLLPSTTGLLNDNTFAQCKKGVRVVNCARGGIVDEGALLRALQSGQCAGAALDVFTEEPPRDRALVDHENVISCPHLGASTKEAQSRCGEEIAVQFVDMVKGKSLTG
notes: also called catalytic domain of PHGDH; source: E. coli BL21 DE3, purified
B2: GST-ASS1 (natural protein, human, UniProt P00966 1-412, looked up)
chain: MSSKGSVVLAYSGGLDTSCILVWLKEQGYDVIAYLANIGQKEDFEEARKKALKLGAKKVFIEDVSREFVEEFIWPAIQSSALYEDRYLLGTSLARPCIARKQVEIAQREGAKYVSHGATGKGNDQVRFELSCYSLAPQIKVIAPWRMPEFYNRFKGRNDLMEYAKQHGIPIPVTPKNPWSMDENLMHISYEAGILENPKNQAPPGLYTKTQDPAKAPNTPDILEIEFKKGVPVKVTNVKDGTTHQTSLELFMYLNEVAGKHGVGRIDIVENRFIGMKSRGIYETPAGTILYHAHLDIEAFTMDREVRKIKQGLGLKFAELVYTGFWHSPECEFVRHCIAKSQERVEGKVQVSVLKGQVYILGRESPLSLYNEELVSMNVQGDYEPTDATGFININSLRLKEYHRLQSKVTAK
notes: also called recombinant GST-ASS1; source: E. coli BL21 DE3, purified
B3: His-ASS1 (natural protein, human, UniProt P00966 1-412, looked up)
chain: B2 chain
notes: also called recombinant His-ASS1; source: E. coli BL21 DE3, purified

Common to all, as to settings: both partners purified
The experiment “GST-ASS1” deals with B2. The experiment in a line: pull-down; purified GST-ASS1 immobilised on MagneGST Glutathione Particles; purified His-PHGDH or its truncated forms added overnight at 4 °C; washed with PBST; western blot; GST as negative control. (Immunoblotting shows a protein as a band on a membrane.)
The next experiment deals with T1, His-PHGDH. Described as above.
Another experiment has as its target T2, GST-PHGDH. The experiment in a line: pull-down; purified GST-PHGDH immobilised on MagneGST Glutathione Particles; purified His-ASS1 added overnight at 4 °C; washed with PBST; western blot; GST as negative control.

Consider B1, for which the binding result with GST-ASS1 is reported as “binds”. B2: the binding result with His-PHGDH was “binds”. On to B3, for which, in the experiment with GST-PHGDH, the binding result is given as “binds”.
